In test [1] the target is synthetic cyclic 42 amino acid V2 peptide of 92TH023 gp120 (HIV-1 92TH023 (subtype A/E)). Kind of test: static cell adhesion assay; RPMI8866 cells on immobilised MAdCAM or cV2 92TH023 in buffer with a high concentration of MgCl2.
Test [2] concerns the target deglycosylated 92TH023 V1/V2 tag scaffold (HIV-1 92TH023 (subtype A/E)). Kind of test: static cell adhesion assay.
In test [3] the target is synthetic cyclic 42 amino acid V2 peptide of 92TH023 gp120 (HIV-1 92TH023 (subtype A/E)). Kind of test: SPR. A general note: Surface plasmon resonance follows binding to a sensor surface in real time, without labels.
Test [4] has as its target recombinant A244 gp120 (subtype A/E, GSID) (HIV-1 A244 (subtype A/E)). Kind of test: SPR.
Test [5] deals with recombinant SIVmac766 gp120 (SIVmac766). Description: SPR.
Test [6] addresses T1, recombinant soluble α4β7 heterodimer (human, UniProt P13612 35-977; P26010 20-723, disulfide bond joining the acid-base clasp | disulfide bond joining the acid-base clasp).
T1 construct: also called integrin α4β7; not shown: acid coiled-coil clasp peptide, C-terminal, kept; base coiled-coil clasp peptide, C-terminal, kept
Kind of test: SPR. As to conditions: both partners purified.

As to “integrin α4β7 expressed on the surface of RPMI8866 cells (from UniProt P13612 34-1032; P26010 20-798) (receptor)”, the fold reduction of adhesion in MgCl2 against MnCl2 in test [1] came to 2.5 fold. The same molecule yielded a fold adhesion against deglycosylated 92TH023 V1/V2 1FD6 in test [2] of 5 fold.
Usually Kd stands for the constant that tells how readily two partners part at equilibrium. “soluble α4β1 (from UniProt P13612 35-977; P05556 21-728) (complex)” registered a Kd in test [3] of 9710 nM.
For the molecule “recombinant soluble α4β7 heterodimer (from UniProt P13612 35-977; P26010 20-723) (complex)”, the Kd came out at 7.14 nM in test [4], 104 nM in test [5] and 1.15 nM in test [3].

B1: MAdCAM-Ig fusion protein (Fc fusion, human, UniProt Q13477 19-317, looked up)
chain: QSLQVKPLQVEPPEPVVAVALGASRQLTCRLACADRGASVQWRGLDTSLGAVQSDTGRSVLTVRNASLSAAGTRVCVGSCGGRTFQHTVQLLVYAFPDQLTVSPAALVPGDPEVACTAHKVTPVDPNALSFSLLVGGQELEGAQALGPEVQEEEEEPQGDEDVLFRVTERWRLPPLGTPVPPALYCQATMRLPGLELSHRQAIPVLHSPTSPEPPDTTSPESPDTTSPESPDTTSQEPPDTTSPEPPDKTSPEPAPQQGSTHTPRSPGSTRTRRPEISQAGPTQGEVIPTGSSKPAGDQ
notes: also called Hu-MAdCAM-Ig; MAdCAM-1
With B1, the Kd in test [6] was determined as 0.597 nM.
